For data set [1], the system named is Nc1nc2c(ncn2[C@@H]2O[C@H](CO)[C@@H](O)[C@H]2O)c(=O)[nH]1. The data set is described as follows: Km for inosine and guanosine, transphosphorylation by EA-AP mutant of pENP520. Format: biochemical, Enterobacter aerogenes IFO12010. Conditions: other: transphosphorylation, 100 μmol/ml sodium pyrophosphate, pH 4.0, 30° C., 10 min, cell free extract, Hanes-Woolf. An excerpt:
(§1) The mutations were introduced into the plasmid DNA by using Quick Change site-directed mutagenesis kit produced by Stratagene. Twenty kinds of oligonucleotides (Table 12) for introduction of mutation from MUT180 (SEQ ID NO: 101) to […] (SEQ ID NO: 120) were synthesized by using a DNA synthesizer (Model 394 produced by Applied Biosystem). The mutations were introduced according to the protocol of Stratagene by using pENP170 as the first template and MUT180 and MUT181 as oligonucleotides for introduction of mutation.
(§2) By using a plasmid introduced with a mutation as a new template, the same procedure was repeated to cumulatively introduce site-specific mutations. Plasmids were prepared from the transformants by the alkali lysis method, and their nucleotide sequences were determined to confirm that the target nucleotides were replaced. […]
(§3) Escherichia coli JM109/pENP180, Escherichia coli JM109/pENP320, Escherichia coli JM109/pENP340, Escherichia coli JM109/pENP410, Escherichia coli JM109/pENP510 and Escherichia coli JM109/pENP520, which were introduced with a plasmid containing each mutant acid phosphatase gene, were each inoculated to 50 ml of L medium containing 100 µg/ml of ampicillin and 1 mM of IPTG, and cultured at 37° C. for 16 hours. […] Km values for inosine and guanosine in the transphosphorylation reaction were measured by using each cell free extract. […]

Data set [2] relates to OC[C@H]1O[C@@H](n2cnc3c(O)ncnc32)[C@H](O)[C@@H]1O. Described as above. It is filed as biochemical, Enterobacter aerogenes IFO12010. The note with it: other: transphosphorylation, 100 μmol/ml sodium pyrophosphate, pH 4.0, 30° C., 10 min, cell free extract, Hanes-Woolf.
Text: as §1, §2, §3

Data set [3] concerns Nc1nc2c(ncn2[C@@H]2O[C@H](CO)[C@@H](O)[C@H]2O)c(=O)[nH]1. In words: Km for inosine and guanosine, transphosphorylation by EA-AP mutant of pENP180 (parent). It is filed as biochemical, Enterobacter aerogenes IFO12010. Conditions: other: transphosphorylation, 100 μmol/ml sodium pyrophosphate, pH 4.0, 30° C., 10 min, cell free extract, Hanes-Woolf. How it is done: (§4) As a gene for introducing a mutation, a plasmid pENP170 that contained a mutant EA-AP gene coding for L61Q/A63Q/E64A/N67D/S69A/G72D/T133K/E134D/I151T mutant EA-AP was used. pENP170 was prepared as follows.
(§5) As described above, a mutant gene was constructed, in which the nucleotide sequence of −10 region of the deduced promoter sequence located upstream from the coding region of the deduced acid phosphatase derived from Enterobacter aerogenes IFO12010 was changed from AAAAAT to TATAAT, which was the same as lac promoter of Escherichia coli. The plasmid containing this mutant gene was designated as pENP180.
as §3, with “hours. The cells were suspended in 50 mL of 100 mM potassium phosphate buffer (pH 7.0), and disrupted by sonication at 4° C. for 20 minutes.[…]” for “hours.”

The test system of data set [4] is OC[C@H]1O[C@@H](n2cnc3c(O)ncnc32)[C@H](O)[C@@H]1O. Described as above. Format: biochemical, Enterobacter aerogenes IFO12010. The note with it: other: transphosphorylation, 100 μmol/ml sodium pyrophosphate, pH 4.0, 30° C., 10 min, cell free extract, Hanes-Woolf. How it is done: as §4, §5
as §3, with “hours. The cells were suspended in 50 mL of 100 mM potassium phosphate buffer (pH 7.0), and disrupted by sonication at 4° C. for 20 minutes.[…]” for “hours.”

Data set [5] deals with Nc1nc2c(ncn2[C@@H]2O[C@H](CO)[C@@H](O)[C@H]2O)c(=O)[nH]1. The data set is described as follows: Km for inosine and guanosine, transphosphorylation by EA-AP mutant of pENP510. It is filed as biochemical, Enterobacter aerogenes IFO12010. Conditions: other: transphosphorylation, 100 μmol/ml sodium pyrophosphate, pH 4.0, 30° C., 10 min, cell free extract, Hanes-Woolf.
Text: as §1, §2, §3

The test system of data set [6] is OC[C@H]1O[C@@H](n2cnc3c(O)ncnc32)[C@H](O)[C@@H]1O. The description is as above. The note with it: other: transphosphorylation, 100 μmol/ml sodium pyrophosphate, pH 4.0, 30° C., 10 min, cell free extract, Hanes-Woolf. It is filed as biochemical, Enterobacter aerogenes IFO12010.
Text: as §1, §2, §3

In data set [7] the test system is Nc1nc2c(ncn2[C@@H]2O[C@H](CO)[C@@H](O)[C@H]2O)c(=O)[nH]1. The data set is described as follows: Km for inosine and guanosine, transphosphorylation by EA-AP mutant of pENP320. It is filed as biochemical, Enterobacter aerogenes IFO12010. The note with it: other: transphosphorylation, 100 μmol/ml sodium pyrophosphate, pH 4.0, 30° C., 10 min, cell free extract, Hanes-Woolf.
Text: as §1, §2, §3

For data set [8], the system named is OC[C@H]1O[C@@H](n2cnc3c(O)ncnc32)[C@H](O)[C@@H]1O. Described as above. It is filed as biochemical, Enterobacter aerogenes IFO12010. Conditions: other: transphosphorylation, 100 μmol/ml sodium pyrophosphate, pH 4.0, 30° C., 10 min, cell free extract, Hanes-Woolf.
Text: as §1, §2, §3

Data set [9] deals with Nc1nc2c(ncn2[C@@H]2O[C@H](CO)[C@@H](O)[C@H]2O)c(=O)[nH]1. The data set is described as follows: Km for inosine and guanosine, transphosphorylation by EA-AP mutant of pENP340. It is filed as biochemical, Enterobacter aerogenes IFO12010. The note with it: other: transphosphorylation, 100 μmol/ml sodium pyrophosphate, pH 4.0, 30° C., 10 min, cell free extract, Hanes-Woolf.
Text: as §1, §2, §3

Data set [10] concerns OC[C@H]1O[C@@H](n2cnc3c(O)ncnc32)[C@H](O)[C@@H]1O. Described as above. It is filed as biochemical, Enterobacter aerogenes IFO12010. Conditions: other: transphosphorylation, 100 μmol/ml sodium pyrophosphate, pH 4.0, 30° C., 10 min, cell free extract, Hanes-Woolf.
Text: as §1, §2, §3

The target in data set [11] is T1, Escherichia blattae acid phosphatase (EB-AP), wild type, SEQ ID NO: 2 / 124 (Shimwellia blattae, UniProt Q9S1A6).
T1 sequence (Q9S1A6 21-249): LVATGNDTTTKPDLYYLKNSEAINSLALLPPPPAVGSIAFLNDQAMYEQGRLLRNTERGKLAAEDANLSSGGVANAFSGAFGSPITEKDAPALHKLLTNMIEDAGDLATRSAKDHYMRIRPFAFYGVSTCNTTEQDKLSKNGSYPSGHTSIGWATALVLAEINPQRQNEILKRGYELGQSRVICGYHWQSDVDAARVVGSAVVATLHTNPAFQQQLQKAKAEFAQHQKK
The data set is described as follows: Km of inosine for wild-type EB-AP. It is filed as biochemical.

Data set [12] deals with Nc1nc2c(ncn2[C@@H]2O[C@H](CO)[C@@H](O)[C@H]2O)c(=O)[nH]1. In words: Km for inosine and guanosine, transphosphorylation by EA-AP mutant of pENP410. It is filed as biochemical, Enterobacter aerogenes IFO12010. Conditions: other: transphosphorylation, 100 μmol/ml sodium pyrophosphate, pH 4.0, 30° C., 10 min, cell free extract, Hanes-Woolf.
Text: as §1, §2, §3

Data set [13] has as its system OC[C@H]1O[C@@H](n2cnc3c(O)ncnc32)[C@H](O)[C@@H]1O. The description is as above. Format: biochemical, Enterobacter aerogenes IFO12010. Conditions: other: transphosphorylation, 100 μmol/ml sodium pyrophosphate, pH 4.0, 30° C., 10 min, cell free extract, Hanes-Woolf.
Text: as §1, §2, §3

“Enterobacter aerogenes IFO12010 acid phosphatase (EA-AP) mutant encoded by pENP520, L61Q/A63Q/E64A/N67D/S69A/A70K/G72D/T133K/E134D/T149G/I151S (parent SEQ ID NO: 10) (Klebsiella aerogenes KCTC 2190; A83Q/A90K/E154D/E84A/G92D/I171S/L81Q/N87D/S89A/T153K/T169G)”: the Km in data set [1] was 4.4 mM; in [2] it was 46 mM. With “Enterobacter aerogenes IFO12010 acid phosphatase (EA-AP) mutant encoded by pENP180, L61Q/A63Q/E64A/N67D/S69A/G72D/T133K/E134D/I151T, SEQ ID NO: 10 (Klebsiella aerogenes KCTC 2190; A83Q/E154D/E84A/G92D/I171T/L81Q/N87D/S89A/T153K)”, the Km in [3] and in [4] was 40 mM throughout. For the compound “Enterobacter aerogenes IFO12010 acid phosphatase (EA-AP) mutant encoded by pENP510, L61Q/A63Q/E64A/N67D/S69A/A70E/G72D/T133K/E134D/T149G/I151S (parent SEQ ID NO: 10) (Klebsiella aerogenes KCTC 2190; A83Q/A90E/E154D/E84A/G92D/I171S/L81Q/N87D/S89A/T153K/T169G)”, the Michaelis-Menten constant (Km) in data set [5] was 4.0 mM; in [6] it was 17 mM.

For the compound “Enterobacter aerogenes IFO12010 acid phosphatase (EA-AP) mutant encoded by pENP320, L61Q/A63Q/E64A/N67D/S69A/A70V/G72D/E102L/T133K/E134D/T149S/I151S (parent SEQ ID NO: 10) (Klebsiella aerogenes KCTC 2190; A83Q/A90V/E122L/E154D/E84A/G92D/I171S/L81Q/N87D/S89A/T153K/T169S)”, the Km worked out at 4.6 mM in data set [7] and 19 mM in data set [8]. Consider “Enterobacter aerogenes IFO12010 acid phosphatase (EA-AP) mutant encoded by pENP340, L61Q/A63Q/E64A/N67D/S69A/A70V/G72D/E102Q/T133K/E134D/T149S/I151S as printed in Table 13 (parent SEQ ID NO: 10) (Klebsiella aerogenes KCTC 2190; A83Q/A90V/E122Q/E154D/E84A/G92D/I171S/L81Q/N87D/S89A/T153K/T169S)”, for which the Km stood at 5.1 mM in [9] and 19 mM in data set [10]. In the case of `OC[C@H]1O[C@@H](n2cnc3c(O)ncnc32)[C@H](O)[C@@H]1O` [inosine], the Km in [11] is > 100 mM.

For the compound “Enterobacter aerogenes IFO12010 acid phosphatase (EA-AP) mutant encoded by pENP410, L61Q/A63Q/E64A/N67D/S69A/A70V/G72D/T133K/E134D/T149A/I151S (parent SEQ ID NO: 10) (Klebsiella aerogenes KCTC 2190; A83Q/A90V/E154D/E84A/G92D/I171S/L81Q/N87D/S89A/T153K/T169A)”, the values for the Michaelis constant (Km) in [12] and in data set [13] were 4.9 mM and 18 mM, respectively.

(Values after US6987008B1, “Variant nucleoside-5′-phosphate producing enzyme” (priority 1999, dated 2006).)
